Values joined by “and” are separate entries in the source; they are usually repeats but may differ in a detail not shown here. Equal entries are not always repeated.
How the values were obtained:
[1] = test system: CFA-induced thermal hyperalgesia; experiment: Hargreaves Model of Hyperalgesia in rats; assay type: in vivo, rat
Method: Hargreaves Model of Hyperalgesia in rats. Rats aged 4-6 weeks (weight range, 180-220 g) were used for intraplantar (ipl) administrations of various antibodies and evaluation of their efficacy in the Hargreaves model of inflammatory pain. Chronic inflammatory pain is induced by injecting a low volume (50 μl) of complete Freund's adjuvant (CFA; heat-killed M. tuberculosis—Sigma, St. Louis, Mo.—suspended in oil:saline 2:1 emulsion) into the right hind paw. The paw withdrawal latency in response to the application of a radiant stimulus onto the plantar surface of both right and left paw was measured using the plantar Analgesia Meter equipment for paw stimulation (IITC Life Science, Woodland Hills, Calif.). The time taken by the animal to respond by licking or flicking its paw is interpreted as positive response (paw withdrawal latency). After 48 h of the CFA injection, the baseline for latency paw withdrawal was measured and the mAbs tested. […] A cut-off time (20 sec) is established at the end of which the heat source shuts off automatically to avoid tissue damage. Animals were kept (randomized) one per cage and staff performing pain experiments are blinded to the content of injectable compounds. Percentage of maximum possible effect (% MPE) was calculated using the formula % MPE=(Test Latency−Baseline Latency)×100/(Cut-off−Baseline Latency).

[2] = test system: OD1-evoked Nav1.7-mediated spontaneous pain behaviours; assay type: in vivo, mouse; settings: 100 μg, injected 60 minutes prior to OD1; 20 min after the injection
FC5 = experiment: Surface Plasmon Resonance for VHH antibodies, immobilized FC5; assay type: binding; settings: SPR; 25 C
Method: (§1) Surface Plasmon Resonance for VHH antibodies. For SPR experiments, IMAC-purified VHHs DI-D, DI-4, DI-16, DI-28 and DI-48 were passed through a Superdex 75 (GE Healthcare) column for SEC purification in HBS-EP+buffer (10 mM HEPES, pH 7.4, containing 150 mM NaCl, 3 mM EDTA and 0.05% P20), connected to an AKTAPurifier (GE Healthcare) at a flow rate of 1 ml/min. Monomeric VHH fractions were collected and protein concentration determined by measuring A280 measurement. Using a Biacore T200 instrument (GE Healthcare), approximately 500-1000 RUs of FC5DIE3IR, FC5 and an irrelevant VHH (2A3-H4) were immobilized on a CM5 Series S sensor chip (GE Healthcare) at pH 4.0 using standard amine coupling according to the manufacturer's instructions (GE Healthcare). […] Surfaces were regenerated by washing with a 120 s pulse of 10 mM glycine pH 1.5. Data were analyzed with Biacore T200 Software v 3.0 and affinities determined using steady state binding or a 1:1 binding model.

2A3-H4 = experiment: Surface Plasmon Resonance for VHH antibodies, immobilized irrelevant VHH 2A3-H4; assay type: binding; settings: SPR; 25 C
Method: as §1

FC5DIE3IR = molecular target: T1, FC5DIE3IR (Homo sapiens, UniProt Q15858); experiment: Surface Plasmon Resonance for VHH antibodies, immobilized FC5DIE3IR; assay type: binding; settings: for Kd / Rmax (RU) / ka / kd: immobilized FC5DIE3IR; for ka / kd: 25 C
T1 construct: The supernatant was collected and loaded on a 5 ml MabSelect™ SuRe™ column; made in house; host or cells: CHO-3E7 (transient, pTT5 vector), purified from supernatant
Method: as §1

Chain of FC5 (as listed by the source): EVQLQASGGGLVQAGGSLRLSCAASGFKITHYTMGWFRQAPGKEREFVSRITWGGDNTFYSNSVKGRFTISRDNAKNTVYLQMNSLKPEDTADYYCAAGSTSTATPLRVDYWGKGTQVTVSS

Molecule | Binding to immobilized FC5 (comment, in words) (FC5) | Binding to immobilized 2A3-H4 (comment, in words) (2A3-H4) | Kd (FC5DIE3IR) [nM] | Rmax (RU) (FC5DIE3IR) | ka (FC5DIE3IR) [M⁻¹ s⁻¹] | kd (FC5DIE3IR) [s⁻¹] | also measured
TLESEEDFRKYFYYLEGSKDALLCGFSTDS (Peptide #2 = 30 amino acid sequence located on loop3 of the D1 domain of the Nav1.7 polypeptide) [P2] |  |  |  |  |  |  | Latency paw withdrawal time ([1]; peptide 375 μg co-injected with 3A8 75 μg, intraplantar (FIG. 18)): 6.76 ± 0.32 s; 3A8-induced reversal of hyperalgesia (% MPE) ([1]; peptide 375 μg co-injected with 3A8 75 μg, intraplantar, 4 h): 13.49%±2.62
CC(=O)Nc1cccc(Nc2ncnc(N3CCC(OCc4ccc(OC(F)(F)F)cc4)CC3)n2)c1C [TC-N1752, reference compound] |  |  |  |  |  |  | Percentage of effect after injection (on left paw withdrawal) ([1]; 100 μg intraplantar, 0 h): 0%; Latency paw withdrawal ([1]; 100 μg intraplantar, 1 h): 8.15 ± 1.6 s and 8.15 ± 2.60 s; Percentage of effect after injection (on left paw withdrawal) ([1]; 100 μg intraplantar, 1 h): 37.01%; Latency paw withdrawal ([1]; 100 μg intraplantar, 2 h): 11.17 ± 1.19 s; Percentage of effect after injection (on left paw withdrawal) ([1]; 100 μg intraplantar, 2 h): 44.77%; Latency paw withdrawal ([1]; 100 μg intraplantar, 4 h): 11.90 ± 0.99 s; Percentage of effect after injection (on left paw withdrawal) ([1]; 100 μg intraplantar, 4 h): 49.05%; Percentage of maximum possible effect (% MPE) ([1]; 100 μg intraplantar, 4 h (FIG. 27B)): 46.47%±7.14; Time spent in pain behaviors (saline plus OD1 = 100%) [2]: 51.62%±4.85
DI-16: VHH from FC5DIE3IR llama immune library; SEQ ID NO: 49; clone DI-11 has identical sequence (protein, DI-16) VHH: QAQVQLVESGGGLVQAGGSLRLSCAASGRTVSSYTMGWFRQAPGKERRFVATVNSSGRGTHYADSVKGRFTISRDNAKNTVYLQMNSLKPEDTAVYYCAAAPYPDGSLGPGYDYWGQGTQVTVSS | No binding | No binding | 4.3 | 317.9 | 619000 | 0.00266 | 
DI-28: VHH from FC5DIE3IR llama immune library; SEQ ID NO: 54 (protein, DI-28) VHH: QAQVQLVESGGGLVQAGGSLRLSCAASGRTFSSSGMGWFRQAPGKDRELVAGISWSGDSAYYANSVAGRFTISRDNINNTVYLQMNSLKPEDTAVYYCAARQGGRNYATSPREYDYWGQGTQVTVSS | No binding | No binding | 4.4 | 318.3 | 461000 | 0.00205 | 
DI-48: VHH from FC5DIE3IR llama immune library; SEQ ID NO: 59 (protein, DI-48) VHH: QAQVQLVESGGGLVQAGGSLRLSCAASGRTFSTYVMGWFRQTPGKEREFVAGFSWSGDYAIYVNSVKGRFTISRDNAKNTVYLQMNSLRPEDTAVYYCAARQRGGYSGRSYYTGRNDYEYWGQGTQVTVSS | No binding | Very low |  |  |  |  | Binding to immobilized FC5DIE3IR (comment, in words) (FC5DIE3IR; SPR): Low affinity,
DI-4: VHH from FC5DIE3IR llama immune library; SEQ ID NO: 47 (protein, DI-4) VHH: QVQLVESGGGLVQPGGSLRLSCAASGFTFSNYWMYWVRQAPGKGLERVSSIYISGGNTYYADSVKGRFTISRDNAKNTLYLQMNSLKSEDTAVYYCVKGDTFGGMDYWGKGTQVTVSS | No binding | Very low non- |  | 469.2 |  |  | 
